Measurements: publication PMC4970725

How the values were obtained:
[1] = biological target: IL-18 (Homo sapiens) (UniProt Q14116); conditions: cited from earlier work
[2] = biological target: IL-18 receptor on NK-92MI cells (human (endogenous in NK-92MI)) (UniProt Q13478)
Sequence of IL-18 receptor on NK-92MI cells (human (endogenous in NK-92MI)) (Q13478 19-541, chain 1 of 2): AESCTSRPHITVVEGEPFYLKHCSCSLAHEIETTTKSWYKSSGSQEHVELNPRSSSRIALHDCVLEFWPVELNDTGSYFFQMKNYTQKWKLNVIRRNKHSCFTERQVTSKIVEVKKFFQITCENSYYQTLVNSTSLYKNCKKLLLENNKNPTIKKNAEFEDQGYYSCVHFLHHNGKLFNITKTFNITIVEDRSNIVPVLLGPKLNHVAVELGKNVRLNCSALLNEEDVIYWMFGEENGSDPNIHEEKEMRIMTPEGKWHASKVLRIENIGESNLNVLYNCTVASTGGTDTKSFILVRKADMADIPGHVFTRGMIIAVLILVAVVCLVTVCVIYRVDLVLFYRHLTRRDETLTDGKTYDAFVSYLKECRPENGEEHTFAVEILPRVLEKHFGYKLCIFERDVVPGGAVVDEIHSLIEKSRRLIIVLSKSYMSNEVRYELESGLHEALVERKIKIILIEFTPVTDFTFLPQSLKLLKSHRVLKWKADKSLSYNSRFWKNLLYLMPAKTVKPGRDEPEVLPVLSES
Sequence of IL-18 receptor on NK-92MI cells (human (endogenous in NK-92MI)) (O95256 20-599, chain 2 of 2, further chain): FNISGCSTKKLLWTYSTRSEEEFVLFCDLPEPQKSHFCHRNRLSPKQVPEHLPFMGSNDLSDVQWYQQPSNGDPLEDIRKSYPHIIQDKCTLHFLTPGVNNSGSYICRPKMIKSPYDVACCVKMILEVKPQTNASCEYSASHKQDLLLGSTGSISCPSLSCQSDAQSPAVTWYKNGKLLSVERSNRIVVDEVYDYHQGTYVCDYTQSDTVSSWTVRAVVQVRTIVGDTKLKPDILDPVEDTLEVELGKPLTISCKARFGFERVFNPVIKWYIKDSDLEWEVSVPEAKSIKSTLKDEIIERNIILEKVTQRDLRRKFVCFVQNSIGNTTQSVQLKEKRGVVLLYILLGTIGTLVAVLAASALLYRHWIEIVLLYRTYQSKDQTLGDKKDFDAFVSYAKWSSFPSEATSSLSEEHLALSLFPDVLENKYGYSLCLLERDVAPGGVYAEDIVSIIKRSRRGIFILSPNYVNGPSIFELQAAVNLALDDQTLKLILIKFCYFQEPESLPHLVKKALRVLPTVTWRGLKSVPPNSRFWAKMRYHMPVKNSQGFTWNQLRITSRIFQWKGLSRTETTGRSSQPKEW

Sequence of IL-18BP (O95998 31-194): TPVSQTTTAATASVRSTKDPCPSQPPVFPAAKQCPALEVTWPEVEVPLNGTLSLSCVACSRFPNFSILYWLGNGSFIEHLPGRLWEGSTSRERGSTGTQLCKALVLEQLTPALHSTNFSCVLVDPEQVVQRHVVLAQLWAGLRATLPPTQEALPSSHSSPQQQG
Sequence of IL-18 (Homo sapiens) (Q14116 37-193): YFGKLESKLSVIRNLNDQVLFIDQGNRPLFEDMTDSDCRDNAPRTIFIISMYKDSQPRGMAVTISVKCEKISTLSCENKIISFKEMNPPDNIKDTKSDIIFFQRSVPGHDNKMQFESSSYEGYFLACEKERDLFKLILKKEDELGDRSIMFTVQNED

## IL-18BP (from UniProt O95998)
[1]
  Kd: 0.4 nM

## recombinant mature human interleukin-18 E6K (ligand)
[2]
  IFN-γ in the supernatant (ELISA) of NK-92MI cells stimulated with 0.5 ng/ml IL-12 and 12.5-200 ng mL^-1 IL-18; activity against wild-type IL-18 at 200 ng mL^-1 (times higher than wild-type IL-18): 9.3

## recombinant mature human interleukin-18 T63A (ligand)
[2]
  IFN-γ in the supernatant (ELISA) of NK-92MI cells stimulated with 0.5 ng/ml IL-12 and 12.5-200 ng mL^-1 IL-18; activity against wild-type IL-18 at 200 ng mL^-1 (times higher than wild-type IL-18): 3.9
